Data as given in paper PMC5067070.

Molecular target: Xenopus laevis ERCC1 (Xenopus laevis (endogenous in egg extract))
Assay: immunodepletion

Xenopus laevis SLX4 (natural protein)
percent of SLX4 co-depleted: 90%
